According to patent US20210188994A1:

Molecular target: His-tagged FcγRIIIa recombinant protein (UniProt P08637)
Test: SPR (BIACORE X100), His-tagged FcγRIIIa captured on anti-His CM5 chip, antibody as analyte, 1:1 Langmuir fit

Chain of UniProt P08637 (P08637 17-208 limits assumed): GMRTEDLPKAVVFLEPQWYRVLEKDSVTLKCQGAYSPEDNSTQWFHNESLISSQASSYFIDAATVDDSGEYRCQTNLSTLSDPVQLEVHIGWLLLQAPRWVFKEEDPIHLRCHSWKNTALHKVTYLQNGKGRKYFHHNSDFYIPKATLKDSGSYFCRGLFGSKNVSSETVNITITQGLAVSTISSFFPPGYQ

- Kd: 39.9 nM
- koff: 0.0069 s⁻¹
- kon: 173000 M⁻¹ s⁻¹
Substance: GAZYVA (obinutuzumab), commercial afucosylated anti-CD20 antibody
